Test results published in the supplement of paper PMC9112550, “Optimization of the antimicrobial peptide Bac7 by deep mutational scanning” (BMC Biology, 2022).

Tested on: Escherichia coli TOP10
Experiment: shrunken log2 fold change of peptide-encoding DNA abundance (4.5 h post-induction vs induction); higher = less antimicrobial activity (less host growth inhibition)
Details: time post-induction: 4.5 h; library: site-saturation at positions 5, 18, 19, 20
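Also: peptides expressed intracellularly from a pBAD plasmid library in pooled LB shake-flask culture, induced with 0.3% L-arabinose, DNA abundance read by NGS, three biological replicates, DESeq2 with apeglm shrinkage.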

Sequence	shrunken log2 fold change
RRIRVRPPRLPRPRPRPYRVPRP	-0.0295
RRIRGRPPRLPRPRPRPACRPRP	0.549
RRIRLRPPRLPRPRPRPNPRPRP	0.304
RRIRHRPPRLPRPRPRPNGKPRP	-0.335
RRIRMRPPRLPRPRPRPCFLPRP	-0.117
RRIRQRPPRLPRPRPRPTEPPRP	0.00378
RRIRKRPPRLPRPRPRPWIVPRP	-0.056
RRIRHRPPRLPRPRPRPDYPPRP	-0.111
RRIRYRPPRLPRPRPRPGTRPRP	-0.393
RRIRSRPPRLPRPRPRPGMRPRP	0.789
RRIRIRPPRLPRPRPRPGPRPRP	0.358
RRIRWRPPRLPRPRPRPVKEPRP	-0.0992
RRIRGRPPRLPRPRPRPKFNPRP	0.353
RRIRMRPPRLPRPRPRPKWHPRP	0.349
RRIRERPPRLPRPRPRPTCGPRP	0.497
RRIRIRPPRLPRPRPRPDLLPRP	-0.634
RRIRMRPPRLPRPRPRPPHAPRP	1.65
RRIRCRPPRLPRPRPRPQMLPRP	0.0498
RRIRFRPPRLPRPRPRPEGAPRP	1.05
RRIRIRPPRLPRPRPRPLFFPRP	-0.374
RRIRYRPPRLPRPRPRPSRHPRP	-0.649
RRIRGRPPRLPRPRPRPNLGPRP	0.191
RRIRHRPPRLPRPRPRPHVSPRP	-0.0122
RRIRVRPPRLPRPRPRPECWPRP	0.573
RRIRHRPPRLPRPRPRPWDQPRP	0.0769

Sequence	shrunken log2 fold change
RRIRKRPPRLPRPRPRPTPVPRP	0.756
RRIRQRPPRLPRPRPRPLKCPRP	-0.139
RRIRWRPPRLPRPRPRPNEDPRP	0.211
RRIRMRPPRLPRPRPRPKWMPRP	0.21
RRIRFRPPRLPRPRPRPPRKPRP	0.827
RRIRPRPPRLPRPRPRPIRTPRP	0.289
RRIRHRPPRLPRPRPRPKTMPRP	-0.0912
RRIRTRPPRLPRPRPRPVMWPRP	-0.11
RRIRFRPPRLPRPRPRPIIMPRP	-0.799
RRIRTRPPRLPRPRPRPVLTPRP	1.21
RRIRYRPPRLPRPRPRPFCWPRP	-0.212
RRIRWRPPRLPRPRPRPWKCPRP	-0.01
RRIRCRPPRLPRPRPRPMDCPRP	-0.0376
RRIRDRPPRLPRPRPRPQKPPRP	-0.00349
RRIRVRPPRLPRPRPRPDNMPRP	-0.868
RRIRIRPPRLPRPRPRPLYRPRP	-0.384
RRIRYRPPRLPRPRPRPRLHPRP	-0.415
RRIRGRPPRLPRPRPRPTMRPRP	1.44
RRIRERPPRLPRPRPRPLKNPRP	-0.477
RRIRKRPPRLPRPRPRPWMNPRP	-0.00146
RRIRMRPPRLPRPRPRPESTPRP	2.28
RRIRDRPPRLPRPRPRPLDQPRP	0.0626
RRIRPRPPRLPRPRPRPRRNPRP	-0.0266
RRIRMRPPRLPRPRPRPASQPRP	0.174
RRIRTRPPRLPRPRPRPTNGPRP	-0.0801

Sequence	shrunken log2 fold change
RRIRNRPPRLPRPRPRPNNMPRP	-0.278
RRIRQRPPRLPRPRPRPAKKPRP	-0.0522
RRIRIRPPRLPRPRPRPIMDPRP	-0.364
RRIRLRPPRLPRPRPRPYDRPRP	-0.0202
RRIRKRPPRLPRPRPRPDDFPRP	-0.00262
RRIRRRPPRLPRPRPRPGWAPRP	0.573
RRIRYRPPRLPRPRPRPAATPRP	0.208
RRIRYRPPRLPRPRPRPFYNPRP	-1.15
RRIRNRPPRLPRPRPRPTDVPRP	-0.0793
RRIRARPPRLPRPRPRPNDKPRP	-0.129
RRIRERPPRLPRPRPRPQMSPRP	-0.114
RRIRYRPPRLPRPRPRPRTEPRP	-0.188
RRIRGRPPRLPRPRPRPTHYPRP	0.525
RRIRYRPPRLPRPRPRPQHSPRP	-0.978
RRIRVRPPRLPRPRPRPAHKPRP	-0.0968
RRIRVRPPRLPRPRPRPQNMPRP	-0.465
RRIRTRPPRLPRPRPRPCPDPRP	-0.283
RRIRLRPPRLPRPRPRPGRKPRP	0.0459
RRIRTRPPRLPRPRPRPSGEPRP	2.88
RRIRSRPPRLPRPRPRPSELPRP	-0.215
RRIRDRPPRLPRPRPRPRWFPRP	-0.0867
RRIRYRPPRLPRPRPRPRRTPRP	-0.202
RRIRCRPPRLPRPRPRPFGMPRP	-0.033
RRIRWRPPRLPRPRPRPTVPPRP	0.0399
RRIRMRPPRLPRPRPRPEKVPRP	1.45

Sequence	shrunken log2 fold change
RRIRPRPPRLPRPRPRPIVQPRP	-0.135
RRIRFRPPRLPRPRPRPIPRPRP	0.365
RRIRPRPPRLPRPRPRPVKQPRP	0.169
RRIRMRPPRLPRPRPRPKFKPRP	-0.0108
RRIRKRPPRLPRPRPRPSARPRP	0.468
RRIRRRPPRLPRPRPRPSTSPRP	0.0625
RRIRRRPPRLPRPRPRPNSPPRP	-0.0118
RRIRWRPPRLPRPRPRPTIWPRP	0.0311
RRIRHRPPRLPRPRPRPQIHPRP	-0.46
RRIRPRPPRLPRPRPRPSIKPRP	-0.33
RRIRRRPPRLPRPRPRPYISPRP	-0.485
RRIRKRPPRLPRPRPRPITEPRP	-0.147
RRIRRRPPRLPRPRPRPYTLPRP	-0.34
RRIRDRPPRLPRPRPRPERQPRP	-0.00783
RRIRCRPPRLPRPRPRPTHLPRP	0.232
RRIRVRPPRLPRPRPRPPHMPRP	-0.0804
RRIRRRPPRLPRPRPRPCQGPRP	-0.129
RRIRNRPPRLPRPRPRPNRRPRP	-0.133
RRIRQRPPRLPRPRPRPGIMPRP	-0.0424
RRIRRRPPRLPRPRPRPTFDPRP	0.425
RRIRGRPPRLPRPRPRPVTKPRP	0.661
RRIRMRPPRLPRPRPRPAHVPRP	0.176
RRIRVRPPRLPRPRPRPGYKPRP	-0.222
RRIRARPPRLPRPRPRPAYLPRP	0.365
RRIRMRPPRLPRPRPRPAFSPRP	0.0185

Sequence	shrunken log2 fold change
RRIRIRPPRLPRPRPRPGTLPRP	0.0164
RRIRVRPPRLPRPRPRPGLAPRP	0.166
RRIRYRPPRLPRPRPRPMFCPRP	-0.297
RRIRPRPPRLPRPRPRPEWYPRP	0.203
RRIRSRPPRLPRPRPRPPSNPRP	-0.00786
RRIRQRPPRLPRPRPRPQRNPRP	-0.23
RRIRNRPPRLPRPRPRPRQLPRP	0.244
RRIRFRPPRLPRPRPRPQYNPRP	-1.05
RRIRTRPPRLPRPRPRPSISPRP	-0.362
RRIRLRPPRLPRPRPRPWPYPRP	-0.127
RRIRGRPPRLPRPRPRPYCYPRP	0.0406
RRIRRRPPRLPRPRPRPVDLPRP	0.332
RRIRSRPPRLPRPRPRPKENPRP	-0.0465
RRIRMRPPRLPRPRPRPYKLPRP	0.00411
RRIRPRPPRLPRPRPRPGPHPRP	0.134
RRIRGRPPRLPRPRPRPRFLPRP	0.448
RRIRNRPPRLPRPRPRPERTPRP	-0.00566
RRIRIRPPRLPRPRPRPLDIPRP	-0.216
RRIRDRPPRLPRPRPRPTIDPRP	0.607
RRIRVRPPRLPRPRPRPGKSPRP	-0.0236
RRIRERPPRLPRPRPRPIGMPRP	0.115
RRIRFRPPRLPRPRPRPEWGPRP	0.186
RRIRTRPPRLPRPRPRPEIEPRP	-0.299
RRIRPRPPRLPRPRPRPDLNPRP	0.168
RRIRWRPPRLPRPRPRPIQDPRP	0.0265
